Reference: article PMC3081289 (2011)

Target: T1, Vascular Endothelial Growth Factor (VEGF), receptor binding domain, VEGF_(8–109) (human)
T1 chain: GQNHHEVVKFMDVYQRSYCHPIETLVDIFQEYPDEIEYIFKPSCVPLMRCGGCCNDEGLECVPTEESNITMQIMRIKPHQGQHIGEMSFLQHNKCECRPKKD
Test: SPR

B1: bH1-44 Fab (affinity-improved variant of bH1) (Fab, V domains shown)
VH: EVQLVESGGGLVQPGGSLRLSCAASGFNISGTYIHWVRQAPGKGLEWVARIYPSEGYTRYADSVKGRFTISADTSKNTAYLQMNSLRAEDTAVYYCSRWVGVGFYAMDYWGQGTLVTVSS
VL: DIQMTQSPSSLSASVGDRVTITCRASQNIAKTISGYVAWYQQKPGKAPKLLIYWGSFLYSGVPSRFSGSGSGTDFTLTISSLQPEDFATYYCQQHYSSPPTFGQGTKVEIK
Question: For B1, which koff is on record?
Answer: 0.0014 s⁻¹
